Data reported in publication PMC3192050, “Structural Basis for Specific Binding of Human MPP8 Chromodomain to Histone H3 Methylated at Lysine 9” (PLoS ONE, 2011).
Values belong to the molecule of their own block, whether it stands above or below them.

What was measured:
[1] = molecular target: human MPP8 (M-phase phosphoprotein 8) chromodomain (human) (UniProt Q99549); test: SEC; gel filtration of hMPP8 chromodomain; column buffer 20 mM Tris (pH 8.0), 400 mM NaCl
[2] = molecular target: human MPP8 (M-phase phosphoprotein 8) chromodomain (human) (UniProt Q99549); test: SEC; size exclusion of hMPP8 chromodomain in the presence or in the absence of H3K9me3 peptide
hMPP8 chromodomain = molecular target: T1, hMPP8 chromodomain (Homo sapiens, UniProt Q99549); test: Surface plasmon resonance (SPR) binding of histone peptides to hMPP8 chromodomain; conditions: BIAcore3000, 14°C, synthetic peptide residues 19 to 33, 150 mM NaCl, 20 mM Tris, pH 8.0, 1 mM DTT, Fig. S1F right panel
T1 construct: The chromodomain of human MPP8 (residue 56–116) was inserted into a pET28a-MHL vector; His-tag (cleaved yes); made in house; host or cells: E. coli BL21 (DE3) Codon plus RIL
T1 sequence (Q99549 56-116): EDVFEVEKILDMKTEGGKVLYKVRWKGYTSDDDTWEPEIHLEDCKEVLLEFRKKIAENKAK
Description: The binding affinity of hMPP8 chromodomain and histone peptides were determined at 14°C using BIAcore3000 instruments. The biotinylated peptides were immobilized on a streptavidin-coated biosensor chip (SA-Chip). All experiments were carried out in the continuous-follow buffer (150 mM NaCl, 20 mM Tris, pH 8.0, 1 mM DTT). The injected protein sample was flowed for 3 min over the peptide coated SA-Chips at a follow rate of 30 ml/min and the change of response unit (RU) was recorded. Protein dissociation was monitored for 3 min by following the continuous-follow buffer at a follow rate of 30 ml/min over the SA-Chips. The KD was determined by global nonlinear regression fitting of the association and dissociation curves according to the Langmuir binding isotherm model.

[3] = system: hMpp8 chromodomain mutant, Lys100 mutated to proline; test: Histone H3K27 peptide pulldown, hMPP8 chromodomain mutant with Lys100 mutated to proline; format: binding, human; conditions: Fig. S1B
Source text: (§1) It is noteworthy that the sequence motif of H3K27 is similar to H3K9 tail (KAARK^27S versus QTARK^9S). However, methylated histone H3K27 cannot interact with hMPP8 chromodomain. To explain why hMPP8 specifically recognizes methylated H3K9, we built a mutant model that hMPP8 binds to methylated H3K27. We mutated residues Gln5 and Thr6 of the QTARK^9S motif to KA to generate a motif of KAARK^9S, which shared the same amino sequence around the K27 site in histone H3. […] To further validate the hypothesis, hMpp8 chromodomain mutants were designed to rescue the binding ability to H3K27me3. Based on our structures, residues Lys100, Glu101 and Val102 were mutated to proline, respectively, to generate enough space where the side chain of Lys5 can insert.
(§2) Supplementary file pone.0025104.s001.tif: Figure S1 hMPP8 specifically recognizes methylated H3K9 rather than H3K27. (A) A mutant structure model for hMPP8 binds to KAARK(me3)S histone motif. Gln5 and Thr6 of the QTARK^9S motif were mutated to KA in this model. (B) Histone H3K27 peptide pulldowns with proteins of wild type hMpp8 chromodomain and indicated mutants, respectively. […] Molecular mass was measured by size exclusion. (F) Binding affinity of hMPP8 chromodomain to H3K4me3 (left panel, measured by ITC method) and H3K27me3 peptide (right panel, measured by SPR method). […]

[4] = system: hMpp8 chromodomain mutant, Glu101 mutated to proline; test: Histone H3K27 peptide pulldown, hMPP8 chromodomain mutant with Glu101 mutated to proline; format: binding, human; conditions: Fig. S1B
Source text: as §1, §2

[5] = Size exclusion chromatography, oligomerization state in solution; format: physicochemical; conditions: 20 mM Tris (pH 8.0), 400 mM NaCl, Fig. 1D
Source text: Figure 1 Overall structure of hMPP8 chromodomain. (A) Sequence alignment of chromodomains of human MPP8, Drosophila HP1 and Drosophila Polycomb. Secondary structural elements (arrows for β strands and rectangles for α helices) are indicated, η represent 3_10 helix. Methylated H3K9 binding residues are marked by stars. Residues involved in dimerization of human Mpp8 and Drosophila Polycomb are marked by diamonds and triangles, respectively. The alignment was created with Espript (http://espript.ibcp.fr/Espript/Espript). (B) Cartoon representation of the crystal structure of hMPP8 chromodomain. The two subunits of the homodimer are colored in cyan and green, respectively, and the secondary structure regions in both proteins are marked. (C) Interactions between the two subunits of the hMPP8 chromodomain homodimer. The dimer interface is formed by strand β2 through an antiparallel arrangement. (D) Gel filtration of hMPP8 chromodomain (left panel). The column buffer was 20 mM Tris (pH 8.0), 400 mM NaCl. The molecular weight of hMPP8 chromodomain monomer was measured using tricine-SDS-PAGE (right panel). TEXT PRINTED IN THE PICTURE: (D) no label printed: 100.09 ml (13.6 kDa)
To determine the oligomerization state of hMPP8 chromodomain in solution, size exclusion experiment was performed. […] The molecular weight of hMPP8 chromodomain monomer is about 8.0 kD. […]

- stoichiometry N [1]: 2
- stoichiometry N [2]: 2
Molecule: human MPP8 (M-phase phosphoprotein 8) chromodomain (from UniProt Q99549 56-116) (domain or fragment)

- binding (SPR) (hMPP8 chromodomain): does not exhibit detectable binding
- binding in peptide pulldown [3]: able to bind H3K27me3 peptide weakly
- binding in peptide pulldown [4]: able to bind H3K27me3 peptide weakly
Molecule: H3K27me3: synthetic H3K27me3 (residues 19 to 33) peptide (QLATKAARKSAPATG; K27 trimethylation; UniProt P68431 20-34, looked up, fragment)

B1: hMPP8 chromodomain: recombinant chromodomain of human MPP8 (residue 56–116), expressed in BL21 (DE3) Codon plus RIL (protein, UniProt Q99549 56-116, looked up, fragment)
chain: T1 sequence (Q99549 56-116)
modifications: chromodomain
notes: recombinant chromodomain of human MPP8 (residue 56–116), expressed in BL21 (DE3) Codon plus RIL
- oligomerization state in solution ([5]; free form): homodimer
- apparent molecular weight in solution ([5]; monomer about 8.0 kD): 13.6 kD
